As a reminder, the Km is the substrate concentration at which the rate is half of its maximum.

The source of these data is patent publication US8114641B2, “Methylbutanol as an advanced biofuel” (Synthetic Genomics, Inc., priority 2007, dated 2012).

For data set [1] the following is noted: based on literature review; cited from earlier work.
The nature of data set [2]: Physical properties of alcohol fuels and gasoline. The class given is physicochemical.
Data set [3] can be described thus: Fuel properties of the neat fuel.
For data set [4] the following is noted: 10% blend in gasoline.
For data set [5] the following is noted: 10% blend in gasoline; value based on literature review; cited from earlier work.
The nature of data set [6]: Reductase activity of yeast ADH1 on various aldehydes. Format: biochemical. On the procedure: The ideal ADH for 2-MBO production should be able to reduce branched aldehydes. Therefore, the enzymes ADH1, ADH6, and ADH7 were overexpressed in yeast and were tested for their reductase activity on various aldehydes.
The nature of data set [7]: Keto acid decarboxylase activity on 2-keto butyrate, NADH dependent coupled assay with yeast ADH1. Format: biochemical. To be noted: for Vmax 2 keto butyrate / Km: crude extract; for Vmax 2 keto butyrate: S. cerevisiae PDC1 deletion host; for Km: enzyme expressed from p415 TEF in S. cerevisiae PDC1 deletion strain. Here is the method:
(§1) The Lactococcus lactis KdcA and S. cerevisiae and P. stipitis PDCs were cloned into yeast expression vector p415 under the control of TEF promoter. The host strain was a PDC1 deletion strain. Crude extracts were prepared for enzymatic assays by incubating cell pellet with CelLytic (Sigma), followed by bead beating. The decarboxylase reaction was performed in 100 mM Citrate Phosphate buffer with 1 mM Thiamine diphosphate, 1 mM MgCl2 and 50 μM to 20 mM aldehyde. The assay was coupled to an alcohol dehydrogenase which enabled continuous monitoring of NADH or NADPH oxidation at 340 nm.
NADH dependent coupled assays with yeast ADH1 were carried out to determine the decarboxylase activity of yeast and heterologous enzymes on the substrate 2 keto butyrate (2KB). 2KB is an intermediate in the production of 2-methylbutanol. A high decarboxylase activity on 2KB can lead to its conversion to propanal and reduce the yield of 2-MBO. […] (See FIG. 25 a-g.) The enzyme with the lowest Km for 2-ketobutyrate is yeast PDC1 and therefore the corresponding gene needs to be deleted in the 2-MBO production strain (data not shown).

A short description of data set [8]: Keto acid decarboxylase activity on 2-keto-3-methylvalerate, PDC/KDC-ADH6 coupled assay with crude extracts. Format: biochemical. To be noted: for Vmax 2 keto 3 methyl valerate / Km: crude extract; for Vmax 2 keto 3 methyl valerate: S. cerevisiae PDC1 deletion host; for Km: enzyme expressed from p415 TEF in S. cerevisiae PDC1 deletion strain, read-out: Km 2 keto 3 methyl valerate. Here is the method: as §1
The substrate specificity of the crude extract overexpressing different PDC/Kdcs was tested with a broad range of aldehydes. This included acetaldehyde, butyraldehyde and 2-methylbutyraldehyde. The concentration of the aldehydes was varied from 50 μM to 20 mM to determine the Km and Vmax values.
2-keto-3-methylvalerate (2K3MV) was tested for decarboxylation and subsequent reduction using PDC/KDC-ADH6 coupled assays.

The nature of data set [9]: Keto acid decarboxylase activity on pyruvate, crude extracts. As to conditions: crude extract, S. cerevisiae PDC1 deletion host; sigmoidal curves. The class given is biochemical. On the procedure: as §1
Pyruvate is the target for multiple enzymes and a decarboxylation of the compound can lead to the production of acetaldehyde and subsequently ethanol. To prevent decarboxylation of pyruvate and increase 2-MBO production, a keto acid decarboxylase with a very high Km for pyruvate is ideal. […] The kinetic curves obtained with pyruvate as substrate were sigmoidal. This could be due to the fact that there are multiple enzymes in the crude extract with different Km for pyruvate. The final curve is therefore the superposition of individual curves. Absolute Km values […]. (FIG. 26.)

Like-named read-outs stand apart in the source and are kept apart here.

Consider `CCO` [Ethanol, reference compound], for which, in [1], the “Fuel Solubility in Water” value is 100 wt % and the “Water Solubility in Fuel” value is given as 100 wt %. Moreover, in data set [2], the “Boiling Point, max” value is 79 °C; the “Flash Point, min” value is 13 °C; the “Freezing Point, max” value is −114 °C. In [3], the “Energy Content” value is 84,519 BTU/gal and the “Reid Vapor Pressure” value is 2.3 psi. Besides, the “Pump Octane (R + M)/2” value in [3] (extrapolated from tests on blended fuels (blending octanes)) is 130.9. The “Energy Content” value in data set [4] is reported as 111,052 BTU/gal. In addition, in data set [4] (RBOB with Pump Octane 80.85 and RVP 7.37), the “Pump Octane (R + M)/2” value is reported as 85.9. Also, the “Reid Vapor Pressure” value in [5] was ~8.2^A psi.

B1: ADH1: Saccharomyces cerevisiae alcohol dehydrogenase ADH1, SEQ ID NO: 67 (protein, listed as Saccharomyces cerevisiae)
chain: MSIPETQKGVIFYESHGKLEYKDIPVPKPKANELLINVKYSGVCHTDLHAWHGDWPLPVKLPLVGGHEGAGVVVGMGENVKGWKIGDYAGIKWLNGSCMACEYCELGNESNCPHADLSGYTHDGSFQQYATADAVQAAHIPQGTDLAQVAPILCAGITVYKALKSANLMAGHWVAISGAAGGLGSLAVQYAKAMGYRVLGIDGGEGKEELFRSIGGEVFIDFTKEKDIVGAVLKATDGGAHGVINVSVSEAAIEASTRYVRANGTTVLVGMPAGAKCCSDVFNQVVKSISIVGSYVGNRADTREALDFFARGLVKSPIKVVGLSTLPEIYEKMEKGQIVGRYVVDTSK
As for B1, the “fold less active on 2-methyl butaraldehyde than acetaldehyde” value in data set [6] is ~5000 fold.

B2: L. lactis KDCA: Branched-chain alpha-ketoacid decarboxylase [Lactococcus lactis], SEQ ID NO: 61 (protein, listed as Lactococcus lactis)
chain: MYTVGDYLLDRLHELGIEEIFGVPGDYNLQFLDQIISREDMKWIGNANELNASYMADGYARTKKAAAFLTTFGVGELSAINGLAGSYAENLPVVEIVGSPTSKVQNDGKFVHHTLADGDFKHFMKMHEPVTAARTLLTAENATYEIDRVLSQLLKERKPVYINLPVDVAAAKAEKPALSLEKESSTTNTTEQVILSKIEESLKNAQKPVVIAGHEVISFGLEKTVTQFVSETKLPITTLNFGKSAVDESLPSFLGIYNGKLSEISLKNFVESADFILMLGVKLTDSSTGAFTHHLDENKMISLNIDEGIIFNKVVEDFDFRAVVSSLSELKGIEYEGQYIDKQYEEFIPSSAPLSQDRLWQAVESLTQSNETIVAEQGTSFFGASTIFLKSNSRFIGQPLWGSIGYTFPAALGSQIADKESRHLLFIGDGSLQLTVQELGLSIREKLNPICFIINNDGYTVEREIHGPTQSYNDIPMWNYSKLPETFGATEDRVVSKIVRTENEFVSVMKEAQADVNRMYWIELVLEKEDAPKLLKKMGKLFAEQNK
For B2, in data set [7], the “Vmax 2 keto butyrate” value amounted to 2053.0 µM/min/mg and the Km is 6.05 mM. In [8], the “Vmax 2 keto 3 methyl valerate” value came to 987.3 µM/min/mg and the Km was 3.75 mM. The Km in data set [8] (listed as KDCA) is 3.7 mM. In addition, in [9], the “Vmax Pyruvate” value came out at 10069 µM/min/mg.

B3: P. stipitis PDC 3/6: Pyruvate decarboxylase (PDC6) (PDC3) [Pichia stipitis], SEQ ID NO: 53 (protein, listed as Pichia stipitis)
chain: MTPVQETIRLPGTSSPTVPENVTLGEYLFLRISQANPKLRSIFGIPGDFNVDLLEHLYSPVVAGRDIKFIGLCNELNGAYTADGYSRAIGGLSTFISTFGVGELSAINGIAGSFAEFSPVLHIVGTTSLPQRDHAINGSDVRNHHHLIQNKNPLCQPNHDVYKKMIEPISVIQESLDSDLQRNMEKIDRVLVKILQESRPGYLFIPCDITNLIVPSYRLYETPLPLEIQLTTSGVEVLEDVVDAILFRLYKSKNPSLLSDCLTTRFNLQDKLNTLVAKLPSNFVKLFSTNMARNIDESLSNFVGLYFGIGSSSKEVSRQLERNTDFLINLGYFNAETTTAGYSNDFSNIEEYIEINPDYIKVNEHIINIKNPESGKRLFSMGQLLDALLFKLDLNKIENINNNNISYKFFPPTLYEQDNNTDYIPQTKLVDYLNENLQPGDLLVMDTMSFCFALPDIMLPQGVQLLTQNYYGSIGYALPSTFGATMAVNDLGSDRRIILIEGDGAAQMTIQELSSFLKYKEFLPNMPKIFLINNDGYTVERMIKGPTRSYNDINGEWSWTQLLGVFGDKEQKYHSTALLRNVNEFNKYFEFQRQTDNSKLEFIELIAGKYDCPLRFSEMFCKK
On to B3, for which, in [7], the “Vmax 2 keto butyrate” value was found to be 5389 µM/min/mg and the Km came to 6.51 mM. Besides, in data set [7] (relative to L. lactis KdcA), the “Vmax on 2 keto butyrate, fold higher than KDCA” value was “about 3.4 fold”. Besides, in [8], the “Vmax 2 keto 3 methyl valerate” value was 3359. uM/min/mg and the Km was 0.84 mM. Also, in data set [8] (listed as P. stipitis PDC3/6), the Km was found to be 0.84 mM. Besides, the “Vmax on 2-keto-3-methylvalerate, fold higher than KdcA” value in data set [8] (relative to L. lactis KdcA) was determined as 3.4 fold. For the same molecule, the “Vmax Pyruvate” value in data set [9] is 12624 µM/min/mg.
